# Source: the supplement of paper PMC10567573
# B1: PTPRD (parent)
# chain: PVVSMDLDPQPITDEEEGLIWVVG
# Variants of: B1
# Assay: protein stability index of a GFP-peptide fusion (GPS, HEK-293T) (PSI 1-6); higher = more stable
# Conditions: c terminus: a fixed tail appended
# 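Further: lentivirally expressed fusions sorted by FACS into six bins by GFP to DsRed ratio, PSI derived from sequencing read proportions per bin multiplied by bin number.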
row,Variant,protein stability index
1,PVVSMDLDPQPITYEEEGLIWVVG [D14Y],2.27
2,PVVSMDLDPQPITEEEEGLIWVVG [D14E],3.78
3,PVVSMDLDPQPITREEEGLIWVVG [D14R],2.31
4,PVVSMDLDPQPITCEEEGLIWVVG [D14C],2.9
5,PVVSMDLDPQPITDEEEGLDWVVG [I20D],4.8
6,PVVSMDLDPQPITDEEEGLNWVVG [I20N],4.31
7,PVVSMDLDPQPITDEEEGLPWVVG [I20P],5.16
8,PVVSMDLDPQPITDEEEGLVWVVG [I20V],4.87
9,PVVSMDLDPQPITDEEEGLLWVVG [I20L],2.99
10,PVVSMDLDPQPITDEEEGLSWVVG [I20S],4.64
11,PVVSMDLDPQPITDEEEGLKWVVG [I20K],4.64
12,PVVSMDLDPQPITDEEEGLEWVVG [I20E],5.35
13,PVVSMDLDPQPITDEEEGLQWVVG [I20Q],4.95
14,PVVSMDLDPQPFTDEEEGLIWVVG [I12F],2.78
15,PVVSMDLDPQPMTDEEEGLIWVVG [I12M],3.75
16,PVVSMDLDPQPGTDEEEGLIWVVG [I12G],4.49
17,PVVSMDLDPQPDTDEEEGLIWVVG [I12D],4.52
18,PVVSMDLDPQPETDEEEGLIWVVG [I12E],4.94
19,PVVSMDLDPQPNTDEEEGLIWVVG [I12N],4.28
20,PVVSMDLDPQPHTDEEEGLIWVVG [I12H],4.07
21,PVVSMDLDPQPCTDEEEGLIWVVG [I12C],3.66
22,PVVSMDLDPQPLTDEEEGLIWVVG [I12L],3.95
23,PVVSMDLDPQPYTDEEEGLIWVVG [I12Y],2.86
24,PVVSMDLDTQPITDEEEGLIWVVG [P9T],4.18

row,Variant,protein stability index
1,PVVSMDLDRQPITDEEEGLIWVVG [P9R],3.58
2,PVVSMDLDNQPITDEEEGLIWVVG [P9N],4.12
3,PVVSMDLDWQPITDEEEGLIWVVG [P9W],2.96
4,PVVSMDLDAQPITDEEEGLIWVVG [P9A],2.88
5,PVVSMDLDGQPITDEEEGLIWVVG [P9G],4.54
6,PVVSMDLDPQIITDEEEGLIWVVG [P11I],2.93
7,PVVSMDLDPQAITDEEEGLIWVVG [P11A],4.67
8,PVVSMDLDPQCITDEEEGLIWVVG [P11C],3.36
9,PVVSMDLDPQMITDEEEGLIWVVG [P11M],4.27
10,PVVSMDLDPQPITDEEERLIWVVG [G18R],3.28
11,PVVSMDLDPQPITDEEEHLIWVVG [G18H],3.52
12,PVVSMDLDPQPITDEEELLIWVVG [G18L],3.16
13,PVVSMDLDPQPITDEEESLIWVVG [G18S],3.98
14,PVVSMDLDPQPITDEEEQLIWVVG [G18Q],3.37
15,PVVSMDLDPQPITDEEEELIWVVG [G18E],4.22
16,PVSSMDLDPQPITDEEEGLIWVVG [V3S],3.18
17,PVHSMDLDPQPITDEEEGLIWVVG [V3H],3.38
18,PVMSMDLDPQPITDEEEGLIWVVG [V3M],3.61
19,PVPSMDLDPQPITDEEEGLIWVVG [V3P],3.82
20,PVISMDLDPQPITDEEEGLIWVVG [V3I],3.49
21,PVWSMDLDPQPITDEEEGLIWVVG [V3W],4.09
22,PVLSMDLDPQPITDEEEGLIWVVG [V3L],3.74
23,PVTSMDLDPQPITDEEEGLIWVVG [V3T],4.66
24,PVYSMDLDPQPITDEEEGLIWVVG [V3Y],3.88

row,Variant,protein stability index
1,PVKSMDLDPQPITDEEEGLIWVVG [V3K],3.48
2,PVVSMDLDPGPITDEEEGLIWVVG [Q10G],3.99
3,PVVSMDLDPTPITDEEEGLIWVVG [Q10T],3.73
4,PVVSMDLDPIPITDEEEGLIWVVG [Q10I],4.09
5,PVVSMDLDPPPITDEEEGLIWVVG [Q10P],3.75
6,PVVSMDLDPKPITDEEEGLIWVVG [Q10K],3.76
7,PVVSMDLDPNPITDEEEGLIWVVG [Q10N],3.42
8,PVVSMDLDPDPITDEEEGLIWVVG [Q10D],4.27
9,PVVSMDLDPYPITDEEEGLIWVVG [Q10Y],2.92
10,PVVSMDLDPSPITDEEEGLIWVVG [Q10S],2.77
11,PVVSMDLDPWPITDEEEGLIWVVG [Q10W],3.8
12,PVVSMDLDPLPITDEEEGLIWVVG [Q10L],3.74
13,PVVSMDLDPAPITDEEEGLIWVVG [Q10A],3.56
14,PVVSMDLDPQPIYDEEEGLIWVVG [T13Y],2.9
15,PVVSMDLDPQPILDEEEGLIWVVG [T13L],3.07
16,PVVSMDLDPQPIWDEEEGLIWVVG [T13W],2.47
17,PVVSMDLDPQPICDEEEGLIWVVG [T13C],3.84
18,PVVSMDLDPQPINDEEEGLIWVVG [T13N],3.87
19,PVVSMDLDPQPIADEEEGLIWVVG [T13A],3.87
20,PVVSMDLDPQPITDEEEGQIWVVG [L19Q],3.66
21,PVVSMDLDPQPITDEEEGWIWVVG [L19W],3.37
22,PVVSMDLDPQPITDEEEGTIWVVG [L19T],4.91
23,PVVSMDLDPQPITDEEEGSIWVVG [L19S],4.21
24,PVVGMDLDPQPITDEEEGLIWVVG [S4G],4.17

row,Variant,protein stability index
1,PVVRMDLDPQPITDEEEGLIWVVG [S4R],3.82
2,PVVHMDLDPQPITDEEEGLIWVVG [S4H],3.31
3,PVVDMDLDPQPITDEEEGLIWVVG [S4D],3.92
4,PVVPMDLDPQPITDEEEGLIWVVG [S4P],4.45
5,PVVYMDLDPQPITDEEEGLIWVVG [S4Y],1.99
6,PVVQMDLDPQPITDEEEGLIWVVG [S4Q],4.02
7,PVVWMDLDPQPITDEEEGLIWVVG [S4W],1.83
8,PVVVMDLDPQPITDEEEGLIWVVG [S4V],2.42
9,PVVFMDLDPQPITDEEEGLIWVVG [S4F],2.65
10,PVVSMDLDPQPITDEEEGLIWVVE [G24E],3.77
11,PVVSMDLDPQPITDEEEGLIWVVW [G24W],1.41
12,PVVSMDLDPQPITDEEEGLIWVVM [G24M],2.87
13,PVVSMDLDPQPITDEEEGLIWVVH [G24H],3.87
14,PVVSMDLDPQPITDEEEGLIWVVS [G24S],3.36
15,PVVSMDLDPQPITDEEEGLIWVVF [G24F],1.34
16,PVVSMDLDPQPITDEEEGLIWVNG [V23N],4.45
17,PVVSMDLDPQPITDEEEGLIWVMG [V23M],4.55
18,PVVSMDLDPQPITDEEEGLIWVCG [V23C],3.9
19,PVVSMDLDPQPITDEEEGLIWVYG [V23Y],4.4
20,PVVSMDMDPQPITDEEEGLIWVVG [L7M],3.29
21,PVVSMDPDPQPITDEEEGLIWVVG [L7P],3.4
22,PVVSMDWDPQPITDEEEGLIWVVG [L7W],3.52
